2 substances from patent publication US20250011380A1 can be followed below.

Common to all, as to assay: cell-based or functional assay
In one assay the target is IL2Rαβγ on CTLL2 cells.
Assay [1] deals with IL-2Rβ and common γ chain on 32Dβ cells.
The target in the next assay is IL-21R on B9 cells.

IL2Rαβγ on CTLL2 cells, sequence (P01590 22-268, chain 1 of 3): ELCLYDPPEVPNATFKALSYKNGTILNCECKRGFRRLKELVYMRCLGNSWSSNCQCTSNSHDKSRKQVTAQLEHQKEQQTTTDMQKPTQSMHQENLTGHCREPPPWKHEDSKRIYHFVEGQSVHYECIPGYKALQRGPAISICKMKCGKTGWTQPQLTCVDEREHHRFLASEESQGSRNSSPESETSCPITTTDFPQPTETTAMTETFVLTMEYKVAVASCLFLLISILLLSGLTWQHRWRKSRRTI
IL2Rαβγ on CTLL2 cells, sequence (P16297 27-539, chain 2 of 3, further chain): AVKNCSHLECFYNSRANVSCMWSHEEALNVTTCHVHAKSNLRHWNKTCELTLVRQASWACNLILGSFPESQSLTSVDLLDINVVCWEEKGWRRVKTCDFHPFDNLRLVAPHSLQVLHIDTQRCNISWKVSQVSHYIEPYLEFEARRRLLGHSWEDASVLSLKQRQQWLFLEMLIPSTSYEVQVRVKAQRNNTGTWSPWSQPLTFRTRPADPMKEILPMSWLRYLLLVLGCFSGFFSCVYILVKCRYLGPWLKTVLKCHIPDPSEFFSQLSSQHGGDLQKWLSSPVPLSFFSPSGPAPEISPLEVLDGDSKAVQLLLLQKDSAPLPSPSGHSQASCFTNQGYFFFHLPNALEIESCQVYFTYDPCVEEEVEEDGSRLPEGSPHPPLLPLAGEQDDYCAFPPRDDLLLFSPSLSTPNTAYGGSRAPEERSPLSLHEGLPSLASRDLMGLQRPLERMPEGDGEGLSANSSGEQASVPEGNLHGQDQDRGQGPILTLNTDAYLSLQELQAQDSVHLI
IL2Rαβγ on CTLL2 cells, sequence (P34902 23-369, chain 3 of 3, further chain): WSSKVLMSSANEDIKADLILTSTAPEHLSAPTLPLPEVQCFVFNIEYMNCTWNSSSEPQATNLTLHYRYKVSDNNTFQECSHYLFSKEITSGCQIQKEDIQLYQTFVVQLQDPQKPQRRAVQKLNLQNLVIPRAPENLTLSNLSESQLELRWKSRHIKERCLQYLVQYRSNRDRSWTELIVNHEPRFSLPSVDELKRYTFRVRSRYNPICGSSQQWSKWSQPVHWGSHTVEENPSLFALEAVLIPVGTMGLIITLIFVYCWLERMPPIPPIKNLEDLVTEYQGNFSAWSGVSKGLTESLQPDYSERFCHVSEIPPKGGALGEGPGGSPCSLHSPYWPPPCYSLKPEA

In turn, “recombinant IL-2 (from UniProt P60568 21-153) (ligand)” returned an EC50, CTLL-2 cell proliferation (WST1) with IL2Rαβγ on CTLL2 cells of 0.548 nM. Besides, the EC50, 32Dβ cell proliferation (WST1) in assay [1] was 0.14 nM.
As to “recombinant IL-21 (from UniProt Q9HBE4 32-162) (ligand)”, the EC50, B9 cell proliferation (WST1) with IL-21R on B9 cells is 72.5 nM.
